Substitutions are numbered along the chain they refer to.
Tests used:
PDK1 = PDK1 protein kinase activity test with T308tide substrate; type: biochemical, human; settings: T308tide as substrate
Description: In brief, PDK1 activity assay was performed at room temperature (22° C.) in a 20 μl mix containing 50 mM Tris pH 7.5, 0.05 mg/ml BSA, 0.1% β-mercaptoethanol, 10 mM MgCl2, 100 μM [γ^32P]ATP (5-50 cpm/pmol), 0.003% Brij, 150 ng PDK1, and T308tide (from 0.1 to 1 mM). […] Experiments were repeated at least twice.

PDK1 CD wt = target: T1, PDK1 CD wt (Homo sapiens, UniProt O15530); assay: Surface plasmon resonance (BiaCore) on biotin-P-HM-S6K chip; type: binding; settings: protein pre-incubated with PIFtide
T1 construct: PDK1 CD (50-359), wt (0.35 μM), PDK1 [Phe224Trp] or PDK1 [Thr226Trp] were injected onto the system; GST (N); made in house; host or cells: insect cells
T1 sequence (O15530 50-359): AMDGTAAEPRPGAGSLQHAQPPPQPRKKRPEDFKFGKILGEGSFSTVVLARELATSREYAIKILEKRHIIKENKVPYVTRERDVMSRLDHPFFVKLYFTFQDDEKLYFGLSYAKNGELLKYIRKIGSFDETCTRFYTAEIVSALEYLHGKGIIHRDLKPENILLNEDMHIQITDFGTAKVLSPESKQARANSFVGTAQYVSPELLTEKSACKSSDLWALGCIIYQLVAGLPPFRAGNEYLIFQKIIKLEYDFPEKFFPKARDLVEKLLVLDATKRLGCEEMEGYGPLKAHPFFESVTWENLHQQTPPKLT
Description: (§1) Surface Plasmon resonance (BiaCore) and alpha-screen interaction and displacement assays: Binding of GST-PDK1 to a P-HM-polypeptide derived from S6K1 shown in FIG. 6 was analysed by surface plasmon resonance on a BiaCore 3000 system using a streptavidin-coated Sensor chip (SA) and biotin-P-HM-polypeptide, as previously described (Biondi, R. M. et al., Embo. J. 20:4380-4390 (2001). The interaction of His-PDK1 with biotin-PIFtide and the displacement by compounds shown in FIG. 3 was performed using the alpha-screen Ni-Chelate kit (Perkin Elmer) on an Envision 2104 multilabel system (Perkin Elmer).
(§2) BiaCore analysis was performed as described previously (Biondi, R. M. et al., Embo. J. 19:979-988 (2000)). […] Since both mutants were performed on the same construct of PDK1, their mass should be very similar and therefore should also produce 600RU when all biotin-(P)HM-S6K polypeptides on the same chip are bound to the mutant PDK1 proteins. Unfortunately, when mutant PDK1 Phe224Trp and PDK1 Thr226Trp were analysed, the injection of the mutants at concentrations higher than 1.3 μM prompted unspecific effects, therefore making difficult the evaluation. […]

PDK1[Phe224Trp] = target: T2, PDK1[Phe224Trp] (Homo sapiens, UniProt O15530, F224W); assay: Surface plasmon resonance (BiaCore) on biotin-P-HM-S6K chip, Phe224Trp mutant; type: binding; settings: protein pre-incubated with PIFtide
T2 construct: The catalytic domain (CD) of PDK1 50-359 and its mutants Phe224Trp and Thr226Trp were expressed in insect cells and purified; made in house; host or cells: insect cells
T2 sequence (O15530 50-359 F224W): T1 sequence (O15530 50-359) with F175W
Description: as §1, §2

PDK1[Thr226Trp] = target: T3, PDK1[Thr226Trp] (Homo sapiens, UniProt O15530, T226W); assay: Surface plasmon resonance (BiaCore) on biotin-P-HM-S6K chip, Thr226Trp mutant; type: binding; settings: protein pre-incubated with PIFtide
T3 construct: The catalytic domain (CD) of PDK1 50-359 and its mutants Phe224Trp and Thr226Trp were expressed in insect cells and purified; made in house; host or cells: insect cells
T3 sequence (O15530 50-359 T226W): T1 sequence (O15530 50-359) with T177W
Description: as §1, §2

PDK1 Tyr126 mutant = target: T4, PDK1 Tyr126 mutant (Homo sapiens, UniProt O15530, Y126A); assay: Biacore binding of PIFtide (data of Komander et al. 2005); settings: applicant's estimate from the published biacore data
T4 sequence (O15530 1-556 Y126A): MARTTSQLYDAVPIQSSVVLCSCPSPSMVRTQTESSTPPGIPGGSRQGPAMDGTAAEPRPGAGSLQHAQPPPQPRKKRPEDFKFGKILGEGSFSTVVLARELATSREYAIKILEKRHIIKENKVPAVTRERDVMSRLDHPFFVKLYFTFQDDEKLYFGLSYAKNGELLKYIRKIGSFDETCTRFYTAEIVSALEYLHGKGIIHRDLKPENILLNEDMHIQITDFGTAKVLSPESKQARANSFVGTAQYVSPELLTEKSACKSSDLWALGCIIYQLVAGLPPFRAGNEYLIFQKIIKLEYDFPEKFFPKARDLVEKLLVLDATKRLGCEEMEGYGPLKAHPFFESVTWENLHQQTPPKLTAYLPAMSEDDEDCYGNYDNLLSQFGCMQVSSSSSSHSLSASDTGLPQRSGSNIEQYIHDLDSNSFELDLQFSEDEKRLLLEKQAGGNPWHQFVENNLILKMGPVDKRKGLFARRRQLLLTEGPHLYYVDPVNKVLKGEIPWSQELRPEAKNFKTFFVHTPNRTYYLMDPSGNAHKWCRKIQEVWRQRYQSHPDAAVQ

PDK1, sequence (O15530 51-360 limits assumed): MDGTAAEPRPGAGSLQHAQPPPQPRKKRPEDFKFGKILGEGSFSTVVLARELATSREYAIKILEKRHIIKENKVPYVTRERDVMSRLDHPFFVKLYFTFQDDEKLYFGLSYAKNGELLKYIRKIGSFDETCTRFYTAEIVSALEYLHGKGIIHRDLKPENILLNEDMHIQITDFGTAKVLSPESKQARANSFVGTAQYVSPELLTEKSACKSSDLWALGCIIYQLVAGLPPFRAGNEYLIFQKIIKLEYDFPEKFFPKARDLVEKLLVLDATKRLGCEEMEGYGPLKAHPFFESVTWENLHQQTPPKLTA

- activation of PDK1 (PDK1): activated
- displacement by PIFtide of PDK1 binding to biotin-P-HM-S6K (PDK1 CD wt): displaced
- displacement by PIFtide of PDK1[Phe224Trp] binding to the chip (PDK1[Phe224Trp]): displaced
- displacement by PIFtide of PDK1[Thr226Trp] binding to the chip (PDK1[Thr226Trp]): displaced
- decreased affinity for PIFtide of the Tyr126 mutant (PDK1 Tyr126 mutant): over 30 fold
Sequence: REPRILSEEEQEMFRDFDYIADWC [PIFtide, polypeptide derived from the C-terminal 24 amino acids of the PDK1 substrate PRK2]

Reference: patent US20120003668A1, “HIGH RESOLUTION COMPLEX STRUCTURE AND ALLOSTERIC EFFECTS OF LOW MOLECULAR WEIGHT ACTIVATORS ON THE PROTEIN KINASE PDK1” (UNIVERSITAET DES SAARLANDES, priority 2008, published 2012)
